System: Escherichia coli TOP10
Assay: shrunken log2 fold change of peptide-encoding DNA abundance (4.5 h post-induction vs induction); higher = less antimicrobial activity (less host growth inhibition)
Details: time post-induction: 4.5 h; library: site-saturation at positions 5, 18, 19, 20
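Note: peptides expressed intracellularly from a pBAD plasmid library in pooled LB shake-flask culture, induced with 0.3% L-arabinose, DNA abundance read by NGS, three biological replicates, DESeq2 with apeglm shrinkage.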

Sequence: RRIRFRPPRLPRPRPRPPMDPRP
- shrunken log2 fold change: -0.155

Sequence: RRIRLRPPRLPRPRPRPVTEPRP
- shrunken log2 fold change: 0.0237

Sequence: RRIRSRPPRLPRPRPRPNRRPRP
- shrunken log2 fold change: -0.0429

Sequence: RRIRFRPPRLPRPRPRPSCFPRP
- shrunken log2 fold change: -0.0773

Sequence: RRIRKRPPRLPRPRPRPMPSPRP
- shrunken log2 fold change: 0.0546

Sequence: RRIRRRPPRLPRPRPRPRRCPRP
- shrunken log2 fold change: 0.615

Sequence: RRIRHRPPRLPRPRPRPDYPPRP
- shrunken log2 fold change: -0.111

Sequence: RRIRYRPPRLPRPRPRPRHLPRP
- shrunken log2 fold change: -0.142

Sequence: RRIRMRPPRLPRPRPRPDRVPRP
- shrunken log2 fold change: 0.0719

Sequence: RRIRRRPPRLPRPRPRPSLHPRP
- shrunken log2 fold change: 0.114

Sequence: RRIRTRPPRLPRPRPRPSPSPRP
- shrunken log2 fold change: -0.0444

Sequence: RRIRDRPPRLPRPRPRPKKKPRP
- shrunken log2 fold change: -0.0718

Sequence: RRIRARPPRLPRPRPRPGFCPRP
- shrunken log2 fold change: 0.572

Sequence: RRIRWRPPRLPRPRPRPDVAPRP
- shrunken log2 fold change: 1.3

Sequence: RRIRFRPPRLPRPRPRPRPRPRP
- shrunken log2 fold change: 1.65

Sequence: RRIRARPPRLPRPRPRPTEEPRP
- shrunken log2 fold change: -0.082

Sequence: RRIRHRPPRLPRPRPRPMEIPRP
- shrunken log2 fold change: -0.0801

Sequence: RRIRRRPPRLPRPRPRPYKHPRP
- shrunken log2 fold change: -0.89

Sequence: RRIRGRPPRLPRPRPRPENYPRP
- shrunken log2 fold change: -0.144

Sequence: RRIRVRPPRLPRPRPRPSRNPRP
- shrunken log2 fold change: -0.0696

Sequence: RRIRSRPPRLPRPRPRPAEFPRP
- shrunken log2 fold change: 0.00621

Sequence: RRIRPRPPRLPRPRPRPDCEPRP
- shrunken log2 fold change: 0.0556

Sequence: RRIRVRPPRLPRPRPRPVEFPRP
- shrunken log2 fold change: 0.0286

Sequence: RRIRWRPPRLPRPRPRPRYRPRP
- shrunken log2 fold change: 0.124

Sequence: RRIRHRPPRLPRPRPRPEYIPRP
- shrunken log2 fold change: 0.00452

Sequence: RRIRCRPPRLPRPRPRPQHEPRP
- shrunken log2 fold change: 0.0354

Sequence: RRIRQRPPRLPRPRPRPMHHPRP
- shrunken log2 fold change: -0.288

Sequence: RRIRDRPPRLPRPRPRPCYPPRP
- shrunken log2 fold change: -0.0894

Sequence: RRIRKRPPRLPRPRPRPKMCPRP
- shrunken log2 fold change: -0.0224

Sequence: RRIRDRPPRLPRPRPRPCTNPRP
- shrunken log2 fold change: -0.0463

Sequence: RRIRWRPPRLPRPRPRPIWDPRP
- shrunken log2 fold change: 0.214

Sequence: RRIRHRPPRLPRPRPRPTSPPRP
- shrunken log2 fold change: -0.0524

Sequence: RRIRHRPPRLPRPRPRPLCPPRP
- shrunken log2 fold change: -0.138

Sequence: RRIRTRPPRLPRPRPRPGLFPRP
- shrunken log2 fold change: 0.458

Sequence: RRIRMRPPRLPRPRPRPEGLPRP
- shrunken log2 fold change: 0.0151

Sequence: RRIRIRPPRLPRPRPRPQCWPRP
- shrunken log2 fold change: 0.203

Sequence: RRIRARPPRLPRPRPRPLWRPRP
- shrunken log2 fold change: 0.24

Sequence: RRIRPRPPRLPRPRPRPYLTPRP
- shrunken log2 fold change: -0.689

Sequence: RRIRIRPPRLPRPRPRPSCDPRP
- shrunken log2 fold change: 0.346

Sequence: RRIRCRPPRLPRPRPRPWQLPRP
- shrunken log2 fold change: -0.263

Sequence: RRIRTRPPRLPRPRPRPTIAPRP
- shrunken log2 fold change: -0.372

Sequence: RRIRNRPPRLPRPRPRPLDRPRP
- shrunken log2 fold change: 0.0215

Sequence: RRIRWRPPRLPRPRPRPRLWPRP
- shrunken log2 fold change: 0.414

Sequence: RRIRPRPPRLPRPRPRPHDPPRP
- shrunken log2 fold change: 0.192

Sequence: RRIRLRPPRLPRPRPRPQPAPRP
- shrunken log2 fold change: 0.294

Sequence: RRIRQRPPRLPRPRPRPIYKPRP
- shrunken log2 fold change: -0.12

Sequence: RRIRLRPPRLPRPRPRPFRLPRP
- shrunken log2 fold change: -0.0872

Sequence: RRIRTRPPRLPRPRPRPSERPRP
- shrunken log2 fold change: -0.186

Sequence: RRIRERPPRLPRPRPRPEIFPRP
- shrunken log2 fold change: -0.00264

Sequence: RRIRHRPPRLPRPRPRPLHPPRP
- shrunken log2 fold change: -0.148

Sequence: RRIRVRPPRLPRPRPRPQFPPRP
- shrunken log2 fold change: -0.28

Sequence: RRIRYRPPRLPRPRPRPERVPRP
- shrunken log2 fold change: -0.0107

Sequence: RRIRGRPPRLPRPRPRPISFPRP
- shrunken log2 fold change: 0.0122

Sequence: RRIRRRPPRLPRPRPRPLIRPRP
- shrunken log2 fold change: -0.295

Sequence: RRIRFRPPRLPRPRPRPKNAPRP
- shrunken log2 fold change: -0.0814

Sequence: RRIRIRPPRLPRPRPRPKKRPRP
- shrunken log2 fold change: -0.169

Sequence: RRIRTRPPRLPRPRPRPLIPPRP
- shrunken log2 fold change: -0.106

Sequence: RRIRYRPPRLPRPRPRPMRHPRP
- shrunken log2 fold change: -0.0913

Sequence: RRIRARPPRLPRPRPRPSQGPRP
- shrunken log2 fold change: -0.168

Sequence: RRIRLRPPRLPRPRPRPWGSPRP
- shrunken log2 fold change: 0.103

— the supplement of paper PMC9112550, “Optimization of the antimicrobial peptide Bac7 by deep mutational scanning” (BMC Biology, 2022)
